According to article PMC1807978:

Tests used:
Assay in all cases: EMSA
[1] = target: 4bFH (4bZf-M.HpaII F35H) (synthetic zinc finger; prokaryotic Mtase) (UniProt P15446)
[2] = target: 4cFH (4cZf-M.HpaII F35H) (synthetic zinc finger; prokaryotic Mtase) (UniProt P15446)
[3] = target: T1, M.HpaII wild type (no zinc finger) (UniProt P15446)
T1 sequence: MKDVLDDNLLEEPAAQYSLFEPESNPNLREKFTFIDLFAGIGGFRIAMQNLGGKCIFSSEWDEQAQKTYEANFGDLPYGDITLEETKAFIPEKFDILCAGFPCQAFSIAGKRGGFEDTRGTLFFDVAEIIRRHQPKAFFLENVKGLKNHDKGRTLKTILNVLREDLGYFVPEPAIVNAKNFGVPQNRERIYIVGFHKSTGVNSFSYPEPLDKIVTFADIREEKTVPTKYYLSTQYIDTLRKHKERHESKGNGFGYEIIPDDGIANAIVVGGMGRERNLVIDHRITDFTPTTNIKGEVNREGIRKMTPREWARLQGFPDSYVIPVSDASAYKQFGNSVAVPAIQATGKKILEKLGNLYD

**Q.** With “TGGCCACGCCACTCCCCAGGCTCCATTCCAGGCCGGCGCAATGCTAGACTCGACGCGGCGCTCGTTGCCA (double strand) [Tb/c]” as the sequence, how does the Kd [1] read?
**A.** Its Kd is 0.038 µM.

**Q.** What about the Kd [2] of the same sequence?
**A.** Its Kd is 0.003 µM.

**Q.** What about the Kd [3] of the same sequence?
**A.** The Kd was 0.17 µM.
